Measured values reported in publication PMC6140332.

Molecular target: T1, ERG (33-479) R367K (UniProt P11308 33-479, R367K)
T1 sequence: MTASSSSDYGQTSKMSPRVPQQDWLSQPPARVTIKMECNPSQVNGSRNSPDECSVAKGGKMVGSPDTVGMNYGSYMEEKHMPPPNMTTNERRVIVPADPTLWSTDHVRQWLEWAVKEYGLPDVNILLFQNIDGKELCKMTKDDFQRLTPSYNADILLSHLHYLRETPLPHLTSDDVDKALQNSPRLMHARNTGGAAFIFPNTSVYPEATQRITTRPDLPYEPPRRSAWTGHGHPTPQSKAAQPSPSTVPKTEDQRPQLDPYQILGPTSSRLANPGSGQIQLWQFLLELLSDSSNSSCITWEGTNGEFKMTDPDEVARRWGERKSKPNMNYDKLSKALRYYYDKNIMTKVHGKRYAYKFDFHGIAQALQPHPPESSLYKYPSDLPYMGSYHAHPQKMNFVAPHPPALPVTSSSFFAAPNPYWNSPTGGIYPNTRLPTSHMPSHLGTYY
Assay: EMSA

B1: IRD800-Py (polyomavirus enhancer probe) (dsDNA)
DNA 1: GATCTTTAAGCAGGAAGTGACTAACTGACCGCAGGTGGATC
DNA 2: GATCCACCTGCGGTCAGTTAGTCACTTCCTGCTTAAAGATC
B1: no binding.
